Data: paper PMC4257621, “Structural implications of the C-terminal tail in the catalytic and stability properties of manganese peroxidases from ligninolytic fungi” (Acta Crystallographica Section D: Biological Crystallography, 2014)

B1: MnP6 short variant (Gelatoporia subvermispora B; D200V) (protein)
chain: AVCSDGTRVSNAVCCDFVSLGQDLQSMVLQGDCGEDAHEIIRLTFHDAVAISRKLGPSAGGGADGSMLLFPLVEPEFAASNGIDDSVNNLIPFLSLHPTISAGDLVQFAGAVALSNCPGAPRVQFLAGRPNHTIAAIDGLIPEPQDNVTSILERFDDAGGFTPFEVVSLLASHTIARAVKVDPTLDAAPFDTTPFTFDSQIFLEVLLKGVGFPGLDNNTGEVSSPLPLGDTSTGGKDTGLMRLQSDFALAHDPRTACFWQGFVDQQEFMSQSFASAFAKLAVLGHNTDDLIDCSEVVPVPKPAVDKPTTFPATTGPQDLELSCLAERFPTLSVDPGAQETLIPHCSD
B2: MnP13 (short) (Gelatoporia subvermispora B) (protein)
chain: VTCPDGVNTVANAACCPLFAVRDDIQESLFDGGKCGEEVHESLRLTFHDAIGFSPSLTAQGKFGGGGADGSIAIFESIETGYHANLGIDEIINEQATFILKHNMTAGDFIQFAGAVGVSNCPGAPQLEFLLGRPAATAPAPDKTVPEPFDTVDSILARFGDAGFSPQEVIALLASHSVAAADHVDPAIPGTPFDSTPSDFDPQIFIEVQLRGTLFPGTGGNQGEVESPYPGEIRLQSDHNLARDSRTACFWQSLANNQQQMQAQFKAAMAKLAVLGQDVSQMVDCSDVIPVPLPPATTPHIPAGLSQNNIEQACATAAFPTLPIDVGPQTSIPPVPGS

Substrate: CCn1c(=NN=c2sc3cc(S(=O)(=O)O)ccc3n2CC)sc2cc(S(=O)(=O)O)ccc21
Assay: purified protein
Assay type: biochemical, Gelatoporia subvermispora
Conditions: 0.1 M tartrate pH 3.5, 25°C, 0.1 mM H2O2, no Mn2+, micro and ± signs lost in table, µM supported by b43

| Protein | Km [µM] | kcat [s⁻¹] | kcat/Km [M⁻¹ s⁻¹] |
| --- | --- | --- | --- |
| B1 | 288 ± 12 | 76 ± 1 | 263000 |
| B2 | 2440 ± 200 | 93 ± 3 | 38000 |
